The subject of this data set is chicken embryo kidney (CEK) cells. The data set is described as follows: FTIR microscopy of membrane phase transitions of treated CEK cell membranes. Format: cell-based. The following applies: treated versus control. From the text: The hydrophobic pocket of cyclodexrins has the ability to sequester cholesterol from membranes. When membrane cholesterol content was reduced by cyclodextrin treatment, as compared to the control of FIG. 1A, lipid mobility was reduced and the lipids found more ordered, as shown in FIG. 1B.

For sphingomyelinase, the “change of membrane lipid order / melting groups (FTIR)” value is “significant reduction in the lower melting groups and a large increase in more ordered high melting membrane lipid groups”. Turning to cyclodextrin, the “change of membrane lipid order / melting groups (FTIR)” value was “significant increase in about 45 °C melting lipid ordered groups”.

(Values after patent US20100184190A1, “Influencing viral lipid constituents” (priority 2006, published 2010).)
